{
  "source": "paper doi:10.1101/2021.11.03.467182",
  "biological_target": "SARS-CoV-2 NTD-RBD-foldon (SARS-CoV-2 (strain Wuhan-1/2020) | bacteriophage T4) (UniProt P0DTC2)",
  "test": "SEC-MALS",
  "data": [
    {"substance": "SARS-CoV-2 NTD-RBD-foldon (from UniProt P0DTC2 14-541)", "values": [
      {"measurement": "stoichiometry N", "value": 3}
    ]}
  ]
}
